Experimental findings from IntAct's records for PubMed 19822759 are described below.

This assay deals with sc23a_mouse Sec23a (UniProt Q01405).
Chain of sc23a_mouse Sec23a (Q01405 whole entry): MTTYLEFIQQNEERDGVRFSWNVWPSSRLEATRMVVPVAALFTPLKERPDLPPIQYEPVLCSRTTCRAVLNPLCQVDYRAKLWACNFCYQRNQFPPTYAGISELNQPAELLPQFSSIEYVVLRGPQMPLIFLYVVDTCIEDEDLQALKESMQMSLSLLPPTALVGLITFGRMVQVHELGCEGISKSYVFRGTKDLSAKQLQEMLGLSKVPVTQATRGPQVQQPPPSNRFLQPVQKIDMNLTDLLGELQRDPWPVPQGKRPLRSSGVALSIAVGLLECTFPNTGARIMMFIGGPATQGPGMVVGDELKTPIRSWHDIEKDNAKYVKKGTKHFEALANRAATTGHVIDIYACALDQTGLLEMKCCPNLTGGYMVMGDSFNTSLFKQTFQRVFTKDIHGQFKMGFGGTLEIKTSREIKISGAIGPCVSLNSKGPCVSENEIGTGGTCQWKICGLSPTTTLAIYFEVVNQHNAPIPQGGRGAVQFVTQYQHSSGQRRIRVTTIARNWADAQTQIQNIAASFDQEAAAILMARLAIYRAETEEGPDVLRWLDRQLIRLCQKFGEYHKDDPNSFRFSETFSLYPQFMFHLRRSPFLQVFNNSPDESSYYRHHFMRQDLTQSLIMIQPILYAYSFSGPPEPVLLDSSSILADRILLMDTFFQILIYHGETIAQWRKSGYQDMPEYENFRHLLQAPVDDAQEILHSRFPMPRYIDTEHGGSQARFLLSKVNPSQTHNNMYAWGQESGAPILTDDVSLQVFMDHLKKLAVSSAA

As for “Small COPII coat GTPase SAR1A (Homo sapiens), Q9NR31 T39N”, the “effect of a mutation on the interaction” value is recorded as “disrupting interaction”.
